Tested on: Escherichia coli TOP10
Assay: shrunken log2 fold change of peptide-encoding DNA abundance (4.5 h post-induction vs induction); higher = less antimicrobial activity (less host growth inhibition)
Conditions: time post-induction: 4.5 h; library: site-saturation at positions 5, 18, 19, 20
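Further: peptides expressed intracellularly from a pBAD plasmid library in pooled LB shake-flask culture, induced with 0.3% L-arabinose, DNA abundance read by NGS, three biological replicates, DESeq2 with apeglm shrinkage.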

Q: RRIRWRPPRLPRPRPRPFDAPRP was tested. Which “shrunken log2 fold change” value did it give?
A: 0.029

Q: With RRIRDRPPRLPRPRPRPEANPRP as the sequence, how does the “shrunken log2 fold change” value read?
A: 1.28

Q: How did the “shrunken log2 fold change” value turn out when RRIRTRPPRLPRPRPRPLSCPRP was run?
A: -0.000228

Q: With RRIRDRPPRLPRPRPRPDYFPRP as the sequence, how does the “shrunken log2 fold change” value read?
A: -0.052

Q: RRIRLRPPRLPRPRPRPGWMPRP was tested. Which “shrunken log2 fold change” value did it give?
A: 0.0923

Q: How did the “shrunken log2 fold change” value turn out when RRIRDRPPRLPRPRPRPHIDPRP was run?
A: -0.0782

Q: With RRIRERPPRLPRPRPRPPLSPRP as the sequence, how does the “shrunken log2 fold change” value read?
A: -0.212

Q: For RRIRDRPPRLPRPRPRPSRLPRP, which “shrunken log2 fold change” value is on record?
A: 0.0232

Q: With RRIRWRPPRLPRPRPRPLYLPRP as the sequence, how does the “shrunken log2 fold change” value read?
A: -0.5

Q: Which “shrunken log2 fold change” value does the source give for RRIRSRPPRLPRPRPRPHEMPRP here?
A: 0.0637

Q: RRIRKRPPRLPRPRPRPRDKPRP was tested. Which “shrunken log2 fold change” value did it give?
A: 0.116

Q: With RRIRVRPPRLPRPRPRPEKKPRP as the sequence, how does the “shrunken log2 fold change” value read?
A: -0.0337

Q: For RRIRCRPPRLPRPRPRPLGTPRP, which “shrunken log2 fold change” value is on record?
A: -0.583

Q: With RRIRCRPPRLPRPRPRPMYMPRP as the sequence, how does the “shrunken log2 fold change” value read?
A: -0.143

Q: Which “shrunken log2 fold change” value does the source give for RRIRTRPPRLPRPRPRPNPEPRP here?
A: -0.101

Q: For RRIRARPPRLPRPRPRPMSVPRP, which “shrunken log2 fold change” value is on record?
A: 0.121

Q: For RRIRGRPPRLPRPRPRPIWIPRP, which “shrunken log2 fold change” value is on record?
A: 0.0517

Q: With RRIRFRPPRLPRPRPRPFVKPRP as the sequence, how does the “shrunken log2 fold change” value read?
A: -0.457

Q: For RRIRHRPPRLPRPRPRPRKGPRP, which “shrunken log2 fold change” value is on record?
A: 0.236

Q: How did the “shrunken log2 fold change” value turn out when RRIRSRPPRLPRPRPRPMMVPRP was run?
A: -0.203

Q: RRIRNRPPRLPRPRPRPIHMPRP was tested. Which “shrunken log2 fold change” value did it give?
A: 0.0468

Q: How did the “shrunken log2 fold change” value turn out when RRIRHRPPRLPRPRPRPPHSPRP was run?
A: 0.0314

Q: How did the “shrunken log2 fold change” value turn out when RRIRQRPPRLPRPRPRPVWGPRP was run?
A: 0.225

Q: How did the “shrunken log2 fold change” value turn out when RRIRYRPPRLPRPRPRPHRPPRP was run?
A: 0.0424

Q: With RRIRTRPPRLPRPRPRPNHPPRP as the sequence, how does the “shrunken log2 fold change” value read?
A: 0.0542

Q: RRIRDRPPRLPRPRPRPMMTPRP was tested. Which “shrunken log2 fold change” value did it give?
A: 0.395

Q: For RRIRKRPPRLPRPRPRPVKMPRP, which “shrunken log2 fold change” value is on record?
A: 0.0491

Q: RRIRNRPPRLPRPRPRPDDWPRP was tested. Which “shrunken log2 fold change” value did it give?
A: 0.221

Q: How did the “shrunken log2 fold change” value turn out when RRIRSRPPRLPRPRPRPRSLPRP was run?
A: -0.0256

Q: With RRIRNRPPRLPRPRPRPPDIPRP as the sequence, how does the “shrunken log2 fold change” value read?
A: -0.341

Q: With RRIRWRPPRLPRPRPRPYNMPRP as the sequence, how does the “shrunken log2 fold change” value read?
A: -0.883

Q: RRIRNRPPRLPRPRPRPIGCPRP was tested. Which “shrunken log2 fold change” value did it give?
A: 0.0526

Q: Which “shrunken log2 fold change” value does the source give for RRIRKRPPRLPRPRPRPFRLPRP here?
A: 0.0113

Q: RRIRWRPPRLPRPRPRPYHKPRP was tested. Which “shrunken log2 fold change” value did it give?
A: -0.118

Q: For RRIRYRPPRLPRPRPRPNRKPRP, which “shrunken log2 fold change” value is on record?
A: -0.284

Q: With RRIRQRPPRLPRPRPRPQYIPRP as the sequence, how does the “shrunken log2 fold change” value read?
A: -0.0838

Q: How did the “shrunken log2 fold change” value turn out when RRIRWRPPRLPRPRPRPVKAPRP was run?
A: 0.284

Q: How did the “shrunken log2 fold change” value turn out when RRIRFRPPRLPRPRPRPMFAPRP was run?
A: 0.0307

Q: How did the “shrunken log2 fold change” value turn out when RRIRLRPPRLPRPRPRPQQHPRP was run?
A: -0.212

Q: With RRIRYRPPRLPRPRPRPLYVPRP as the sequence, how does the “shrunken log2 fold change” value read?
A: -0.465

Q: Which “shrunken log2 fold change” value does the source give for RRIRCRPPRLPRPRPRPPWMPRP here?
A: 0.248

Q: Which “shrunken log2 fold change” value does the source give for RRIRCRPPRLPRPRPRPHQCPRP here?
A: -0.24

Q: RRIRCRPPRLPRPRPRPICQPRP was tested. Which “shrunken log2 fold change” value did it give?
A: -0.0542

Q: With RRIRLRPPRLPRPRPRPCQYPRP as the sequence, how does the “shrunken log2 fold change” value read?
A: -0.448

Q: How did the “shrunken log2 fold change” value turn out when RRIRPRPPRLPRPRPRPDQCPRP was run?
A: 0.139

Q: Which “shrunken log2 fold change” value does the source give for RRIRERPPRLPRPRPRPKETPRP here?
A: 0.0319

Q: With RRIRDRPPRLPRPRPRPYLCPRP as the sequence, how does the “shrunken log2 fold change” value read?
A: -0.148

Q: For RRIRLRPPRLPRPRPRPYNMPRP, which “shrunken log2 fold change” value is on record?
A: -0.859

Q: RRIRPRPPRLPRPRPRPIYTPRP was tested. Which “shrunken log2 fold change” value did it give?
A: -0.245

Q: Which “shrunken log2 fold change” value does the source give for RRIRCRPPRLPRPRPRPSAHPRP here?
A: -0.0707

Q: RRIRFRPPRLPRPRPRPWEEPRP was tested. Which “shrunken log2 fold change” value did it give?
A: -0.159

Q: With RRIRRRPPRLPRPRPRPDVDPRP as the sequence, how does the “shrunken log2 fold change” value read?
A: 0.505

Q: For RRIRIRPPRLPRPRPRPYNEPRP, which “shrunken log2 fold change” value is on record?
A: -0.0675

Q: Which “shrunken log2 fold change” value does the source give for RRIRKRPPRLPRPRPRPYDNPRP here?
A: 0.0185

Q: How did the “shrunken log2 fold change” value turn out when RRIRERPPRLPRPRPRPVGKPRP was run?
A: -0.309

Q: How did the “shrunken log2 fold change” value turn out when RRIRKRPPRLPRPRPRPSGFPRP was run?
A: 0.161

Q: For RRIRQRPPRLPRPRPRPIGNPRP, which “shrunken log2 fold change” value is on record?
A: 0.0843

Q: Which “shrunken log2 fold change” value does the source give for RRIRNRPPRLPRPRPRPVFWPRP here?
A: 0.219

Q: For RRIRPRPPRLPRPRPRPDCGPRP, which “shrunken log2 fold change” value is on record?
A: 0.093

Q: How did the “shrunken log2 fold change” value turn out when RRIRARPPRLPRPRPRPIPYPRP was run?
A: -0.0777

Q: Which “shrunken log2 fold change” value does the source give for RRIRCRPPRLPRPRPRPVDAPRP here?
A: 0.323

Q: RRIRLRPPRLPRPRPRPKTYPRP was tested. Which “shrunken log2 fold change” value did it give?
A: -0.511

Q: With RRIRWRPPRLPRPRPRPGIQPRP as the sequence, how does the “shrunken log2 fold change” value read?
A: 0.468

Q: For RRIRDRPPRLPRPRPRPIMCPRP, which “shrunken log2 fold change” value is on record?
A: -0.0425

Q: Which “shrunken log2 fold change” value does the source give for RRIRRRPPRLPRPRPRPFCEPRP here?
A: 0.0918

Q: With RRIRKRPPRLPRPRPRPLTEPRP as the sequence, how does the “shrunken log2 fold change” value read?
A: 0.397

Q: Which “shrunken log2 fold change” value does the source give for RRIRERPPRLPRPRPRPFRCPRP here?
A: 0.00668

Q: With RRIRQRPPRLPRPRPRPCKFPRP as the sequence, how does the “shrunken log2 fold change” value read?
A: -0.194

Q: With RRIRHRPPRLPRPRPRPFEPPRP as the sequence, how does the “shrunken log2 fold change” value read?
A: 0.00846

Q: With RRIRMRPPRLPRPRPRPHENPRP as the sequence, how does the “shrunken log2 fold change” value read?
A: 0.218

Q: Which “shrunken log2 fold change” value does the source give for RRIRYRPPRLPRPRPRPIWVPRP here?
A: -0.0696

Q: With RRIRFRPPRLPRPRPRPIICPRP as the sequence, how does the “shrunken log2 fold change” value read?
A: 0.12

Q: RRIRLRPPRLPRPRPRPEHRPRP was tested. Which “shrunken log2 fold change” value did it give?
A: 0.283

Q: Which “shrunken log2 fold change” value does the source give for RRIRTRPPRLPRPRPRPHIIPRP here?
A: -0.0938

Q: How did the “shrunken log2 fold change” value turn out when RRIRKRPPRLPRPRPRPYSVPRP was run?
A: -0.114

Q: How did the “shrunken log2 fold change” value turn out when RRIRRRPPRLPRPRPRPGFHPRP was run?
A: 0.0982

Q: How did the “shrunken log2 fold change” value turn out when RRIRDRPPRLPRPRPRPIMTPRP was run?
A: 0.107

Q: Which “shrunken log2 fold change” value does the source give for RRIRSRPPRLPRPRPRPMYRPRP here?
A: -0.172

Q: Which “shrunken log2 fold change” value does the source give for RRIRSRPPRLPRPRPRPLVFPRP here?
A: -0.0421

Q: How did the “shrunken log2 fold change” value turn out when RRIRKRPPRLPRPRPRPGPYPRP was run?
A: 0.104

Q: Which “shrunken log2 fold change” value does the source give for RRIRCRPPRLPRPRPRPEICPRP here?
A: 0.0631

Q: How did the “shrunken log2 fold change” value turn out when RRIRHRPPRLPRPRPRPCCTPRP was run?
A: -0.181

Q: For RRIRVRPPRLPRPRPRPTAMPRP, which “shrunken log2 fold change” value is on record?
A: 0.0686

Q: For RRIRKRPPRLPRPRPRPCRAPRP, which “shrunken log2 fold change” value is on record?
A: 0.57

Q: RRIRVRPPRLPRPRPRPLGSPRP was tested. Which “shrunken log2 fold change” value did it give?
A: -0.115

Q: Which “shrunken log2 fold change” value does the source give for RRIRGRPPRLPRPRPRPLWVPRP here?
A: 0.472

Q: RRIRFRPPRLPRPRPRPVQNPRP was tested. Which “shrunken log2 fold change” value did it give?
A: 0.0293

Q: Which “shrunken log2 fold change” value does the source give for RRIRSRPPRLPRPRPRPEQSPRP here?
A: 0.22

Q: Which “shrunken log2 fold change” value does the source give for RRIRQRPPRLPRPRPRPIESPRP here?
A: -0.181

Q: For RRIRNRPPRLPRPRPRPSIQPRP, which “shrunken log2 fold change” value is on record?
A: -0.623

Q: Which “shrunken log2 fold change” value does the source give for RRIRHRPPRLPRPRPRPQPAPRP here?
A: -0.0767

Q: With RRIRMRPPRLPRPRPRPGVMPRP as the sequence, how does the “shrunken log2 fold change” value read?
A: 0.633

Q: Which “shrunken log2 fold change” value does the source give for RRIRVRPPRLPRPRPRPQYIPRP here?
A: -0.655

Q: With RRIRIRPPRLPRPRPRPGIWPRP as the sequence, how does the “shrunken log2 fold change” value read?
A: -0.015

Q: RRIRPRPPRLPRPRPRPGKAPRP was tested. Which “shrunken log2 fold change” value did it give?
A: 0.37

Q: RRIRIRPPRLPRPRPRPYWVPRP was tested. Which “shrunken log2 fold change” value did it give?
A: 0.0603

Q: How did the “shrunken log2 fold change” value turn out when RRIRSRPPRLPRPRPRPANNPRP was run?
A: -0.367

Q: RRIRLRPPRLPRPRPRPDPVPRP was tested. Which “shrunken log2 fold change” value did it give?
A: -0.0275

Q: How did the “shrunken log2 fold change” value turn out when RRIRFRPPRLPRPRPRPMMQPRP was run?
A: -0.297

Q: For RRIRKRPPRLPRPRPRPWMQPRP, which “shrunken log2 fold change” value is on record?
A: -0.0134

Q: RRIRGRPPRLPRPRPRPDKEPRP was tested. Which “shrunken log2 fold change” value did it give?
A: 0.208

Q: Which “shrunken log2 fold change” value does the source give for RRIRYRPPRLPRPRPRPQEAPRP here?
A: -0.029

Q: Which “shrunken log2 fold change” value does the source give for RRIRIRPPRLPRPRPRPHGSPRP here?
A: -0.261

Q: How did the “shrunken log2 fold change” value turn out when RRIRDRPPRLPRPRPRPEKPPRP was run?
A: -0.173

Q: With RRIRERPPRLPRPRPRPRGEPRP as the sequence, how does the “shrunken log2 fold change” value read?
A: -0.023

Q: How did the “shrunken log2 fold change” value turn out when RRIRKRPPRLPRPRPRPFHVPRP was run?
A: -0.265

Q: For RRIRYRPPRLPRPRPRPIYAPRP, which “shrunken log2 fold change” value is on record?
A: -0.461

Q: Which “shrunken log2 fold change” value does the source give for RRIRGRPPRLPRPRPRPMSTPRP here?
A: 0.44

Q: RRIRHRPPRLPRPRPRPTWRPRP was tested. Which “shrunken log2 fold change” value did it give?
A: 0.381
